T1: AMARA peptide, synthetic substrate NH2-AMARAASAAALARRR-CO2H
T1 chain: AMARAASAAALARRR

B1: human PASK S1287,89A, pre-phosphorylated (protein)
chain: MEDGGLTAFEEDQRCLSQSLPLPVSAEGPAAQTTAEPSRSFSSAHRHLSRRNGLSRLCQSRTALSEDRWSSYCLSSLAAQNICTSKLHCPAAPEHTDPSEPRGSVSCCSLLRGLSSGWSSPLLPAPVCNPNKAIFTVDAKTTEILVANDKACGLLGYSSQDLIGQKLTQFFLRSDSDVVEALSEEHMEADGHAAVVFGTVVDIISRSGEKIPVSVWMKRMRQERRLCCVVVLEPVERVSTWVAFQSDGTVTSCDSLFAHLHGYVSGEDVAGQHITDLIPSVQLPPSGQHIPKNLKIQRSVGRARDGTTFPLSLKLKSQPSSEEATTGEAAPVSGYRASVWVFCTISGLITLLPDGTIHGINHSFALTLFGYGKTELLGKNITFLIPGFYSYMDLAYNSSLQLPDLASCLDVGNESGCGERTLDPWQGQDPAEGGQDPRINVVLAGGHVVPRDEIRKLMESQDIFTGTQTELIAGGQLLSCLSPQPAPGVDNVPEGSLPVHGEQALPKDQQITALGREEPVAIESPGQDLLGESRSEPVDVKPFASCEDSEAPVPAEDGGSDAGMCGLCQKAQLERMGVSGPSGSDLWAGAAVAKPQAKGQLAGGSLLMHCPCYGSEWGLWWRSQDLAPSPSGMAGLSFGTPTLDEPWLGVENDREELQTCLIKEQLSQLSLAGALDVPHAELVPTECQAVTAPVSSCDLGGRDLCGGCTGSSSACYALATDLPGGLEAVEAQEVDVNSFSWNLKELFFSDQTDQTSSNCSCATSELRETPSSLAVGSDPDVGSLQEQGSCVLDDRELLLLTGTCVDLGQGRRFRESCVGHDPTEPLEVCLVSSEHYAASDRESPGHVPSTLDAGPEDTCPSAEEPRLNVQVTSTPVIVMRGAAGLQREIQEGAYSGSCHHRDGLRLSIQFEVRRVELQGPTPLFCCWLVKDLLHSQRDSAARTRLFLASLPGSTHSTAAELTGPSLVEVLRARPWFEEPPKAVELEGLAACEGEYSQKYSTMSPLGSGAFGFVWTAVDKEKNKEVVVKFIKKEKVLEDCWIEDPKLGKVTLEIAILSRVEHANIIKVLDIFENQGFFQLVMEKHGSGLDLFAFIDRHPRLDEPLASYIFRQLVSAVGYLRLKDIIHRDIKDENIVIAEDFTIKLIDFGSAAYLERGKLFYTFCGTIEYCAPEVLMGNPYRGPELEMWSLGVTLYTLVFEENPFCELEETVEAAIHPPYLVSKELMSLVSGLLQPVPERRTTLEKLVTDPWVTQPVNLADYTWEEVCRVNKPESGVLSAASLEMGNRALADVAQAQELCGGPVPGEAPNGQGCLHPGDPRLLTS
B2: human PASK S1273-1289A, pre-phosphorylated (protein)
chain: MEDGGLTAFEEDQRCLSQSLPLPVSAEGPAAQTTAEPSRSFSSAHRHLSRRNGLSRLCQSRTALSEDRWSSYCLSSLAAQNICTSKLHCPAAPEHTDPSEPRGSVSCCSLLRGLSSGWSSPLLPAPVCNPNKAIFTVDAKTTEILVANDKACGLLGYSSQDLIGQKLTQFFLRSDSDVVEALSEEHMEADGHAAVVFGTVVDIISRSGEKIPVSVWMKRMRQERRLCCVVVLEPVERVSTWVAFQSDGTVTSCDSLFAHLHGYVSGEDVAGQHITDLIPSVQLPPSGQHIPKNLKIQRSVGRARDGTTFPLSLKLKSQPSSEEATTGEAAPVSGYRASVWVFCTISGLITLLPDGTIHGINHSFALTLFGYGKTELLGKNITFLIPGFYSYMDLAYNSSLQLPDLASCLDVGNESGCGERTLDPWQGQDPAEGGQDPRINVVLAGGHVVPRDEIRKLMESQDIFTGTQTELIAGGQLLSCLSPQPAPGVDNVPEGSLPVHGEQALPKDQQITALGREEPVAIESPGQDLLGESRSEPVDVKPFASCEDSEAPVPAEDGGSDAGMCGLCQKAQLERMGVSGPSGSDLWAGAAVAKPQAKGQLAGGSLLMHCPCYGSEWGLWWRSQDLAPSPSGMAGLSFGTPTLDEPWLGVENDREELQTCLIKEQLSQLSLAGALDVPHAELVPTECQAVTAPVSSCDLGGRDLCGGCTGSSSACYALATDLPGGLEAVEAQEVDVNSFSWNLKELFFSDQTDQTSSNCSCATSELRETPSSLAVGSDPDVGSLQEQGSCVLDDRELLLLTGTCVDLGQGRRFRESCVGHDPTEPLEVCLVSSEHYAASDRESPGHVPSTLDAGPEDTCPSAEEPRLNVQVTSTPVIVMRGAAGLQREIQEGAYSGSCHHRDGLRLSIQFEVRRVELQGPTPLFCCWLVKDLLHSQRDSAARTRLFLASLPGSTHSTAAELTGPSLVEVLRARPWFEEPPKAVELEGLAACEGEYSQKYSTMSPLGSGAFGFVWTAVDKEKNKEVVVKFIKKEKVLEDCWIEDPKLGKVTLEIAILSRVEHANIIKVLDIFENQGFFQLVMEKHGSGLDLFAFIDRHPRLDEPLASYIFRQLVSAVGYLRLKDIIHRDIKDENIVIAEDFTIKLIDFGSAAYLERGKLFYTFCGTIEYCAPEVLMGNPYRGPELEMWSLGVTLYTLVFEENPFCELEETVEAAIHPPYLVSKELMSLVSGLLQPVPERRTTLEKLVTDPWVTQPVNLADYTWEEVCRVNKPEAGVLAAAALEMGNRALADVAQAQELCGGPVPGEAPNGQGCLHPGDPRLLTS
B3: PASK ΔN, truncated variant of human PASK lacking both PAS domains (protein)
chain: SLPGSTHSTAAELTGPSLVEVLRARPWFEEPPKAVELEGLAACEGEYSQKYSTMSPLGSGAFGFVWTAVDKEKNKEVVVKFIKKEKVLEDCWIEDPKLGKVTLEIAILSRVEHANIIKVLDIFENQGFFQLVMEKHGSGLDLFAFIDRHPRLDEPLASYIFRQLVSAVGYLRLKDIIHRDIKDENIVIAEDFTIKLIDFGSAAYLERGKLFYTFCGTIEYCAPEVLMGNPYRGPELEMWSLGVTLYTLVFEENPFCELEETVEAAIHPPYLVSKELMSLVSGLLQPVPERRTTLEKLVTDPWVTQPVNLADYTWEEVCRVNKPESGVLSAASLEMGNRSLSDVAQAQELCGGPVPGEAPNGQGCLHPGDPRLLTS

Target: T1, AMARA peptide, synthetic substrate …

Question: Which Km (mM), pre-phosphorylated does the source give for B1 here?
Answer: Its Km (mM), pre-phosphorylated is 0.2 mM.

Question: With B2 as the protein, how does the Km (mM), pre-phosphorylated read?
Answer: The Km (mM), pre-phosphorylated was 0.2 mM.

Question: B3 was tested. Which Km (mM), pre-phosphorylated did it give?
Answer: The Km (mM), pre-phosphorylated was 0.3 mM.
